Data as given in patent US20170355768A1 (Bristol-Myers Squibb, published 2017).

Biological target: T1, human SLAM family member 7 (hSLAMF7) expressed on A20-hSLAMF7-GFP cells (human, UniProt Q9NQ25 23-335)
T1 construct: also called CS1; CS1-L
Assay: flow cytometry, 6.25 ug/ml Elotuzumab on A20-hSLAMF7-GFP cells, anti-human IgG-PE secondary
Protocol: FIG. 3. Elotuzumab binding to hSLAMF7 expressed in A20 cells was confirmed by flow cytometry. A20-GFP or A20-hSLAMF7-GFP cells were incubated with 6.25 ug/ml Elotuzumab (BMS), washed twice and incubated with anti-human IgG-PE secondary antibody. The frequency of cells staining positive for GFP and hSLAMF7 is shown at 0 days.
To determine whether hSLAMF7 expressed in A20 is recognized by Elotuzumab, A20-GFP and A20-hSLAMF7-GFP cells were stained with Elotuzumab. A20-GFP or A20-hSLAMF7-GFP cells were incubated with 6.25 ug/ml Elotuzumab (BMS), washed twice and incubated with anti-human IgG-PE secondary antibody. The frequency of cells staining positive for GFP and hSLAMF7 was determined using flow cytometry.

binding result: binds
B1: Elotuzumab (antibody, V domains shown)
VH: EVQLVESGGGLVQPGGSLRLSCAASGFDFSRYWMSWVRQAPGKGLEWIGEINPDSSTINYAPSLKDKFIISRDNAKNSLYLQMNSLRAEDTAVYYCARPDGNYWYFDVWGQGTLVTVSS
VL: DIQMTQSPSSLSASVGDRVTITCKASQDVGIAVAWYQQKPGKVPKLLIYWASTRHTGVPDRFSGSGSGTDFTLTISSLQPEDVATYYCQQYSSYPYTFGQGTKVEIK
notes: also called BMS-901608; HuLuc63
